The supplement of paper PMC9112550, “Optimization of the antimicrobial peptide Bac7 by deep mutational scanning” (BMC Biology, 2022)

Test system: Escherichia coli TOP10
Test: shrunken log2 fold change of peptide-encoding DNA abundance (4.5 h post-induction vs induction); higher = less antimicrobial activity (less host growth inhibition)
Settings: time post-induction: 4.5 h; library: site-saturation at positions 5, 18, 19, 20
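Also: peptides expressed intracellularly from a pBAD plasmid library in pooled LB shake-flask culture, induced with 0.3% L-arabinose, DNA abundance read by NGS, three biological replicates, DESeq2 with apeglm shrinkage.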

Sequence	shrunken log2 fold change
RRIRGRPPRLPRPRPRPWWHPRP	-0.22
RRIRGRPPRLPRPRPRPWWLPRP	0.0131
RRIRGRPPRLPRPRPRPWYCPRP	-0.408
RRIRGRPPRLPRPRPRPWYQPRP	0.0417
RRIRGRPPRLPRPRPRPYCEPRP	0.22
RRIRGRPPRLPRPRPRPYDTPRP	-0.0956
RRIRGRPPRLPRPRPRPYERPRP	-1.8
RRIRGRPPRLPRPRPRPYGTPRP	-0.0646
RRIRGRPPRLPRPRPRPYHAPRP	0.142
RRIRGRPPRLPRPRPRPYHHPRP	-0.176
RRIRGRPPRLPRPRPRPYHKPRP	-0.331
RRIRGRPPRLPRPRPRPYIGPRP	0.018
RRIRGRPPRLPRPRPRPYILPRP	-0.614
RRIRGRPPRLPRPRPRPYLNPRP	-0.233
RRIRGRPPRLPRPRPRPYMDPRP	-0.0735
RRIRGRPPRLPRPRPRPYMNPRP	-0.23
RRIRGRPPRLPRPRPRPYNFPRP	-0.35
RRIRGRPPRLPRPRPRPYNQPRP	-0.104
RRIRGRPPRLPRPRPRPYNWPRP	-0.225
RRIRGRPPRLPRPRPRPYPCPRP	-0.0571
RRIRGRPPRLPRPRPRPYQCPRP	-0.0235
RRIRGRPPRLPRPRPRPYQMPRP	-0.0136
RRIRGRPPRLPRPRPRPYQPPRP	-0.257
RRIRGRPPRLPRPRPRPYSAPRP	-0.29
RRIRGRPPRLPRPRPRPYSMPRP	0.00971

Sequence	shrunken log2 fold change
RRIRGRPPRLPRPRPRPYTAPRP	-0.455
RRIRGRPPRLPRPRPRPYVYPRP	-0.0911
RRIRGRPPRLPRPRPRPYWAPRP	0.211
RRIRGRPPRLPRPRPRPYWMPRP	-0.34
RRIRHRPPRLPRPRPRPACGPRP	0.216
RRIRHRPPRLPRPRPRPADLPRP	-0.0314
RRIRHRPPRLPRPRPRPADYPRP	-0.291
RRIRHRPPRLPRPRPRPAEGPRP	-0.00235
RRIRHRPPRLPRPRPRPAEQPRP	0.0649
RRIRHRPPRLPRPRPRPAERPRP	0.0935
RRIRHRPPRLPRPRPRPAFCPRP	0.0444
RRIRHRPPRLPRPRPRPAFEPRP	-0.0402
RRIRHRPPRLPRPRPRPAGMPRP	-0.411
RRIRHRPPRLPRPRPRPAGRPRP	0.29
RRIRHRPPRLPRPRPRPAHMPRP	-0.0835
RRIRHRPPRLPRPRPRPAIEPRP	0.0588
RRIRHRPPRLPRPRPRPAIQPRP	0.0477
RRIRHRPPRLPRPRPRPAKYPRP	0.136
RRIRHRPPRLPRPRPRPALTPRP	0.0729
RRIRHRPPRLPRPRPRPALVPRP	-0.0926
RRIRHRPPRLPRPRPRPAMQPRP	0.325
RRIRHRPPRLPRPRPRPANAPRP	-0.0554
RRIRHRPPRLPRPRPRPANPPRP	0.0212
RRIRHRPPRLPRPRPRPAQNPRP	0.212
RRIRHRPPRLPRPRPRPASNPRP	-0.456

Sequence	shrunken log2 fold change
RRIRHRPPRLPRPRPRPASPPRP	0.158
RRIRHRPPRLPRPRPRPATLPRP	-0.24
RRIRHRPPRLPRPRPRPATMPRP	-0.123
RRIRHRPPRLPRPRPRPATVPRP	0.00308
RRIRHRPPRLPRPRPRPAVEPRP	-0.0419
RRIRHRPPRLPRPRPRPAYVPRP	-0.102
RRIRHRPPRLPRPRPRPCCCPRP	-0.421
RRIRHRPPRLPRPRPRPCCMPRP	-0.43
RRIRHRPPRLPRPRPRPCDNPRP	-0.207
RRIRHRPPRLPRPRPRPCGKPRP	-0.00804
RRIRHRPPRLPRPRPRPCHFPRP	-0.0384
RRIRHRPPRLPRPRPRPCHLPRP	-0.113
RRIRHRPPRLPRPRPRPCIMPRP	-0.0341
RRIRHRPPRLPRPRPRPCIVPRP	-0.0379
RRIRHRPPRLPRPRPRPCKMPRP	-0.134
RRIRHRPPRLPRPRPRPCMCPRP	-0.245
RRIRHRPPRLPRPRPRPCMKPRP	0.0319
RRIRHRPPRLPRPRPRPCMRPRP	0.0267
RRIRHRPPRLPRPRPRPCNHPRP	-0.292
RRIRHRPPRLPRPRPRPCNNPRP	-0.188
RRIRHRPPRLPRPRPRPCPFPRP	-0.654
RRIRHRPPRLPRPRPRPCPHPRP	-0.0102
RRIRHRPPRLPRPRPRPCPWPRP	-0.168
RRIRHRPPRLPRPRPRPCSPPRP	-0.232
RRIRHRPPRLPRPRPRPCSQPRP	-0.00141

Sequence	shrunken log2 fold change
RRIRHRPPRLPRPRPRPCTPPRP	-0.382
RRIRHRPPRLPRPRPRPCTVPRP	-0.0523
RRIRHRPPRLPRPRPRPCVDPRP	-0.184
RRIRHRPPRLPRPRPRPCVFPRP	-0.0413
RRIRHRPPRLPRPRPRPCWDPRP	0.0881
RRIRHRPPRLPRPRPRPCWQPRP	-0.065
RRIRHRPPRLPRPRPRPCYEPRP	-0.185
RRIRHRPPRLPRPRPRPCYFPRP	-0.117
RRIRHRPPRLPRPRPRPCYLPRP	-0.897
RRIRHRPPRLPRPRPRPDGLPRP	-0.0219
RRIRHRPPRLPRPRPRPDHTPRP	-0.307
RRIRHRPPRLPRPRPRPDHWPRP	-0.0694
RRIRHRPPRLPRPRPRPDIRPRP	0.0226
RRIRHRPPRLPRPRPRPDITPRP	-0.212
RRIRHRPPRLPRPRPRPDKSPRP	-0.276
RRIRHRPPRLPRPRPRPDKYPRP	-0.146
RRIRHRPPRLPRPRPRPDLFPRP	-0.00544
RRIRHRPPRLPRPRPRPDMMPRP	-0.21
RRIRHRPPRLPRPRPRPDPNPRP	-0.0239
RRIRHRPPRLPRPRPRPDQTPRP	-0.0379
RRIRHRPPRLPRPRPRPDTCPRP	-0.287
RRIRHRPPRLPRPRPRPDTEPRP	-0.172
RRIRHRPPRLPRPRPRPDWWPRP	0.0937
RRIRHRPPRLPRPRPRPDYAPRP	-0.171
RRIRHRPPRLPRPRPRPDYEPRP	0.00408

Sequence	shrunken log2 fold change
RRIRHRPPRLPRPRPRPEAIPRP	-0.0296
RRIRHRPPRLPRPRPRPECPPRP	-0.0835
RRIRHRPPRLPRPRPRPEDIPRP	-0.00674
RRIRHRPPRLPRPRPRPEENPRP	0.0237
RRIRHRPPRLPRPRPRPEFRPRP	0.00953
RRIRHRPPRLPRPRPRPEHSPRP	-0.179
RRIRHRPPRLPRPRPRPEIMPRP	-0.023
RRIRHRPPRLPRPRPRPEIQPRP	-0.102
RRIRHRPPRLPRPRPRPEITPRP	-0.0206
RRIRHRPPRLPRPRPRPEIYPRP	-0.413
RRIRHRPPRLPRPRPRPEKHPRP	0.0511
RRIRHRPPRLPRPRPRPEMCPRP	-0.206
RRIRHRPPRLPRPRPRPEMGPRP	0.00396
RRIRHRPPRLPRPRPRPEPNPRP	0.0235
RRIRHRPPRLPRPRPRPEQLPRP	-0.0602
RRIRHRPPRLPRPRPRPERAPRP	0.305
RRIRHRPPRLPRPRPRPERCPRP	-0.078
RRIRHRPPRLPRPRPRPERLPRP	0.0977
RRIRHRPPRLPRPRPRPERVPRP	0.228
RRIRHRPPRLPRPRPRPETGPRP	-0.0213
RRIRHRPPRLPRPRPRPEVDPRP	-0.00884
RRIRHRPPRLPRPRPRPEWMPRP	0.188
RRIRHRPPRLPRPRPRPEYFPRP	-0.0339
RRIRHRPPRLPRPRPRPFCHPRP	-0.308
RRIRHRPPRLPRPRPRPFCPPRP	-0.772

Sequence	shrunken log2 fold change
RRIRHRPPRLPRPRPRPFDSPRP	-0.00149
RRIRHRPPRLPRPRPRPFERPRP	-0.128
RRIRHRPPRLPRPRPRPFFPPRP	-0.285
RRIRHRPPRLPRPRPRPFFVPRP	-0.224
RRIRHRPPRLPRPRPRPFGHPRP	-0.233
RRIRHRPPRLPRPRPRPFGKPRP	0.0294
RRIRHRPPRLPRPRPRPFGMPRP	-0.0621
RRIRHRPPRLPRPRPRPFGPPRP	-0.247
RRIRHRPPRLPRPRPRPFHFPRP	-0.403
RRIRHRPPRLPRPRPRPFLWPRP	-0.353
RRIRHRPPRLPRPRPRPFMCPRP	-0.57
RRIRHRPPRLPRPRPRPFMWPRP	-0.137
RRIRHRPPRLPRPRPRPFNQPRP	-0.0213
RRIRHRPPRLPRPRPRPFPFPRP	-0.758
RRIRHRPPRLPRPRPRPFRKPRP	0.00884
RRIRHRPPRLPRPRPRPFVIPRP	-0.331
RRIRHRPPRLPRPRPRPFVLPRP	-0.0634
RRIRHRPPRLPRPRPRPFWFPRP	-0.382
RRIRHRPPRLPRPRPRPFWKPRP	-0.0724
RRIRHRPPRLPRPRPRPFYRPRP	-0.0975
RRIRHRPPRLPRPRPRPGADPRP	0.255
RRIRHRPPRLPRPRPRPGATPRP	0.0387
RRIRHRPPRLPRPRPRPGCRPRP	0.704
RRIRHRPPRLPRPRPRPGDHPRP	-0.00776
RRIRHRPPRLPRPRPRPGECPRP	-0.377
